For assay [1], the target named is BRG1 (human, UniProt P51532 1-1647). As to the kind of experiment: binding test of DPF2 truncation mutants; format not described.
In assay [2] the target is T1, Brm (human, UniProt P51531 1-1590, limits assumed).
T1 construct: also called hBRM
The description is as above.

Consider one molecule from patent publication US20200147120A1 (NATIONAL UNIVERSITY CORPORATION CHIBA UNIVERSITY, published 2020).

T1 sequence (P51531 whole entry): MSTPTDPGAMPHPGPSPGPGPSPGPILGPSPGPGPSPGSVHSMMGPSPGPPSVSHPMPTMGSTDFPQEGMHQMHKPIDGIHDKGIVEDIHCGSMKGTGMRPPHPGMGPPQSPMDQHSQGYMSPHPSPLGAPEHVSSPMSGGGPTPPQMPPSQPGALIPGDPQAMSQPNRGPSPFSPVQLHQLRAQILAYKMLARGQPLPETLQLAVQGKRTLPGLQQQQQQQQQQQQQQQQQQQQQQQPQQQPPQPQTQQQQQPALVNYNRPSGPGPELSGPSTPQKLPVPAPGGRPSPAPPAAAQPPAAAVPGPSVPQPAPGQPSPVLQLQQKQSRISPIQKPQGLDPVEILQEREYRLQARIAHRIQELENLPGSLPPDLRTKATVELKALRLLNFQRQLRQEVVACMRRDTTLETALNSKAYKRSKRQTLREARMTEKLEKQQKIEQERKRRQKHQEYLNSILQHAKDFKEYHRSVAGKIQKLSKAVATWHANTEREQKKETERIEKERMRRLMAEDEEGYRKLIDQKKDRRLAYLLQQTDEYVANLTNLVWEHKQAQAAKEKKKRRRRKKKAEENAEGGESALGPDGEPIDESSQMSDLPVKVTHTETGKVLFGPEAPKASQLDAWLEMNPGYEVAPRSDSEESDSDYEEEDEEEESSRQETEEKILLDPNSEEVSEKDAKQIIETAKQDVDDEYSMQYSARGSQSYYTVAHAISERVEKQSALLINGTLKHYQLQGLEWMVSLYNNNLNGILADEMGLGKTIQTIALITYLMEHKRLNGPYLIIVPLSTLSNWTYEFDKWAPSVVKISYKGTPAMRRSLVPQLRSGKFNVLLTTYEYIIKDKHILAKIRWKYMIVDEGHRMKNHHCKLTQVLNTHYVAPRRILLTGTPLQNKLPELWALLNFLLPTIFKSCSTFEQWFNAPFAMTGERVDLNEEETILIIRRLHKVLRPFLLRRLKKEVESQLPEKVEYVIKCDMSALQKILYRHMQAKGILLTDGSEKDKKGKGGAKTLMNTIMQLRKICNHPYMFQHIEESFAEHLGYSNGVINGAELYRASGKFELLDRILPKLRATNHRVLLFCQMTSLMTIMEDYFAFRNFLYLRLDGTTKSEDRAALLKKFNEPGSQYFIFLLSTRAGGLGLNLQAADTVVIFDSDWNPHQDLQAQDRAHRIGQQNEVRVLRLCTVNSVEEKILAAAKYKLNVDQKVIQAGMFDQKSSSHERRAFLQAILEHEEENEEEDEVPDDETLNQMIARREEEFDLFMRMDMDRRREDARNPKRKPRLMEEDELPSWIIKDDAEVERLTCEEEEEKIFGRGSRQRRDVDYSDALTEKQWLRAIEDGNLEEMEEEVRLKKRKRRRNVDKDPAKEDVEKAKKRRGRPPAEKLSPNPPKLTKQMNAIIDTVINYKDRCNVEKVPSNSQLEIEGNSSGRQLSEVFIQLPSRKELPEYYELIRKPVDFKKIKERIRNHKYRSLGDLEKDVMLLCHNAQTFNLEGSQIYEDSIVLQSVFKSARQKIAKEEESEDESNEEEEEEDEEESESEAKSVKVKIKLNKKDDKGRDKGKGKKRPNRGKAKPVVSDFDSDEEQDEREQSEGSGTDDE
BRG1, sequence (P51532 whole entry, the tested form may be a part): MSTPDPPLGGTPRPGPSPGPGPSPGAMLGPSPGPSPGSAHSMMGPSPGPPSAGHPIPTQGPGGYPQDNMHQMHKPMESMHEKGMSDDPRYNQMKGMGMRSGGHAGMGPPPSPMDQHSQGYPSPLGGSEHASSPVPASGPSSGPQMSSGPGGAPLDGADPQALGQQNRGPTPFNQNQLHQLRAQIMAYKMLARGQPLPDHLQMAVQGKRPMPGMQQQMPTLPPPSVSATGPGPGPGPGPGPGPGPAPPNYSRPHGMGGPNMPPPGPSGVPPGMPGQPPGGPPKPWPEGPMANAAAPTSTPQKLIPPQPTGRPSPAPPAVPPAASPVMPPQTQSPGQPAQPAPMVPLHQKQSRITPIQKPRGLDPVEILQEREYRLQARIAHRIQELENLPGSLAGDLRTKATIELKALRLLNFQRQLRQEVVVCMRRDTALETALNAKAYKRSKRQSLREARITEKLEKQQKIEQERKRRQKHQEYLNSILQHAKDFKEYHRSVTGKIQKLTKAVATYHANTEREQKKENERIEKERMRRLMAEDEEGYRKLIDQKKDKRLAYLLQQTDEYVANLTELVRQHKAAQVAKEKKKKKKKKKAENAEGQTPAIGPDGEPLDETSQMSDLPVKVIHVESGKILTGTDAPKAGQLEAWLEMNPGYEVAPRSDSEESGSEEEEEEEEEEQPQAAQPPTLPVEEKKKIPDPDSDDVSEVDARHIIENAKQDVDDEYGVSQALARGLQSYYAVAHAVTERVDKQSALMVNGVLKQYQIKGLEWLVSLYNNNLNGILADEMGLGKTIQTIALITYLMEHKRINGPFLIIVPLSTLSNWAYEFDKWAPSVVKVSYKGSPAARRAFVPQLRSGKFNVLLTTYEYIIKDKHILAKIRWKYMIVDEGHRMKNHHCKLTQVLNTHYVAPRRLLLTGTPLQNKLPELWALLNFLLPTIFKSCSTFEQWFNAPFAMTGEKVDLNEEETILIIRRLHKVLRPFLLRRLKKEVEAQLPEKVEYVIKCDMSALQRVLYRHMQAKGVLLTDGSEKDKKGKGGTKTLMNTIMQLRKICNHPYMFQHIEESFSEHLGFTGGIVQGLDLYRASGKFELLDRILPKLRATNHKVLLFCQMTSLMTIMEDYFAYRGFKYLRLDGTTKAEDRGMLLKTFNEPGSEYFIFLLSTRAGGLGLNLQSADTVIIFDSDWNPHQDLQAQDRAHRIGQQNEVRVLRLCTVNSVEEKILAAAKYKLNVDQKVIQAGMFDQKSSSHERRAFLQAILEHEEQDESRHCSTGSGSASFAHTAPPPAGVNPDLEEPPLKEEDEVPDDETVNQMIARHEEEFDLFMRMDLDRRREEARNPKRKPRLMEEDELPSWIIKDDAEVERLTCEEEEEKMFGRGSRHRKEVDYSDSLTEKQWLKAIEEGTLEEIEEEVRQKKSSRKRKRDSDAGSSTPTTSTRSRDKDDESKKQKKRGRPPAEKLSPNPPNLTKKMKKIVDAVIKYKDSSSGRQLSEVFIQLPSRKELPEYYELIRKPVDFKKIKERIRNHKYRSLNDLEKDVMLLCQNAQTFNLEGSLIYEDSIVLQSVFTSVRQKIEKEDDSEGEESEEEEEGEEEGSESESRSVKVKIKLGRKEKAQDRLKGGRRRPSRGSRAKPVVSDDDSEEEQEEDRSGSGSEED

B1: DPF2-CT1 (CT1 peptide of DPF2, amino acid residues 1 to 84) (peptide)
peptide: MAAVVENVVKLLGEQYYKDAMEQCHNYNARLCAERSVRLPFLDSQTGVAQSNCYIWMEKRHRGPGLASGQLYSYPARRWRKKRR
notes: One of a series of truncation mutants of DPF2
As to B1, the binding result in assay [1] and in assay [2] was “binds” throughout.
